Source: publication PMC3324469, “Preparation and Characterization of the Extracellular Domain of Human Sid-1” (PLoS ONE, 2012)
Values joined by “and” are separate entries in the source; they are usually repeats but may differ in a detail not shown here. Equal values may be shown once.

Biological target: the molecule itself
Assay: SEC; Superdex 200; concentrated protein applied directly to the column, no pre-incubation period; masses estimated against molecular weight standards

B1: extracellular domain of human SidT1 (SidT1 ECD), glycosylated, secreted from insect cells (domain or fragment)
chain: GAASPGHPAKSPRQPPAPRRDPFDAARGADFDHVYSGVVNLSTENIYSFNYTSQPDQVTAVRVYVNSSSENLNYPVLVVVRQQKEVLSWQVPLLFQGLYQRSYNYQEVSRTLCPSEATNETGPLQQLIFVDVASMAPLGAQYKLLVTKLKHFQLRTNVAFHFTASPSQPQYFLYKFPKDVDSVIIKVVSEMAYPCSVVSVQNIMCPVYDLDHNVEFNGVYQSMTKKAAITLQKKDFPGEQFFVVFVIKPEDYACGGSFFIQEKENQTWNLQRKKNLEVTIVPSIKES
modifications: N-linked glycosylation (sites not given)
notes: N-terminal glycine appendage left from the TEV protease site; human SidT1 (Sid-1 homolog), extracellular domain, residues 19-304 of Entrez Protein AAI17223, after signal peptidase and TEV cleavage; also called SidT1 extracellular domain; recombinant SidT1 ECD; source: Tni (usually) or Sf9 insect cells, baculovirus, secreted into the medium; not shown: His6, N-terminal, cleaved
- stoichiometry N: 2 and 4
